Test results reported in the Human Domainome abundance scans (Beltran et al. 2025).
± gives the uncertainty stated by the source.

B1: Apoptosis-associated speck-like protein containing a CARD, residues 114 to 194; numbered along this chain, Q9ULZ3 (parent)
chain: FIDQHRAALIARVTNVEWLLDALYGKVLTDEQYQAVRAEPTNPSKMRKLFSFTPAWNWTCKDLLLQALRESQSYLVEDLER

Variants of: B1
Assay: abundance fitness (aPCA) (normalised: wild type 0, dead -1); higher = more abundant; growth selection in yeast, the domain comes from the species named
Settings: Homo sapiens

Variant | abundance fitness
FIDQHRAALIARVTNVEWLLDALYGKVLNDEQYQAVRAEPTNPSKMRKLFSFTPAWNWTCKDLLLQALRESQSYLVEDLER [T29N] | -0.338 ± 0.21
FIDQHRAALIARVTNVEWLLDALYGKVLSDEQYQAVRAEPTNPSKMRKLFSFTPAWNWTCKDLLLQALRESQSYLVEDLER [T29S] | -0.208 ± 0.35
FIDQHRAALIARVTNVEWLLDALYGKVLIDEQYQAVRAEPTNPSKMRKLFSFTPAWNWTCKDLLLQALRESQSYLVEDLER [T29I] | -0.825 ± 0.28
FIDQHRAALIARVTNVEWLLDALYGKVLDDEQYQAVRAEPTNPSKMRKLFSFTPAWNWTCKDLLLQALRESQSYLVEDLER [T29D] | -0.626 ± 0.39
FIDQHRAALIARVTNVEWLLDALYGKVLTDEWYQAVRAEPTNPSKMRKLFSFTPAWNWTCKDLLLQALRESQSYLVEDLER [Q32W] | -0.873 ± 0.14
FIDQHRAALIARVTNVEWLLDALYGKVLTDEVYQAVRAEPTNPSKMRKLFSFTPAWNWTCKDLLLQALRESQSYLVEDLER [Q32V] | -0.862 ± 0.11
FIDQHRAALIARVTNVEWLLDALYGKVLTDEPYQAVRAEPTNPSKMRKLFSFTPAWNWTCKDLLLQALRESQSYLVEDLER [Q32P] | -0.941 ± 0.16
FIDQHRAALIARVTNVEWLLDALYGKVLTDECYQAVRAEPTNPSKMRKLFSFTPAWNWTCKDLLLQALRESQSYLVEDLER [Q32C] | -0.68 ± 0.22
FIDQHRAALIARVTNVEWLLDALYGKVLTDEGYQAVRAEPTNPSKMRKLFSFTPAWNWTCKDLLLQALRESQSYLVEDLER [Q32G] | -0.725 ± 0.07
FIDQHRAALIARVTNVEWLLDALYGKVLTDEEYQAVRAEPTNPSKMRKLFSFTPAWNWTCKDLLLQALRESQSYLVEDLER [Q32E] | -0.276 ± 0.11
FIDQHRAALIARVTNVEWLLDALYGKVLTDEDYQAVRAEPTNPSKMRKLFSFTPAWNWTCKDLLLQALRESQSYLVEDLER [Q32D] | -0.842 ± 0.27
FIDQHRAALIARVTNVEWLLDALYGKVLTDEFYQAVRAEPTNPSKMRKLFSFTPAWNWTCKDLLLQALRESQSYLVEDLER [Q32F] | -0.829 ± 0.27
FIDQHRAALIARVTNVEWLLDALYGKVLTDETYQAVRAEPTNPSKMRKLFSFTPAWNWTCKDLLLQALRESQSYLVEDLER [Q32T] | -0.507 ± 0.12
FIDQHRAALIARVTNVEWLLDALYGKVLTDEAYQAVRAEPTNPSKMRKLFSFTPAWNWTCKDLLLQALRESQSYLVEDLER [Q32A] | -0.911 ± 0.1
FIDQHRAALIARVTNVEWLLDALYGKVLTDEYYQAVRAEPTNPSKMRKLFSFTPAWNWTCKDLLLQALRESQSYLVEDLER [Q32Y] | -0.891 ± 0.14
FIDQHRAALIARVTNVEWLLDALYGKVLTDELYQAVRAEPTNPSKMRKLFSFTPAWNWTCKDLLLQALRESQSYLVEDLER [Q32L] | -0.95 ± 0.13
FIDQHRAALIARVTNVEWLLDALYGKVLTDENYQAVRAEPTNPSKMRKLFSFTPAWNWTCKDLLLQALRESQSYLVEDLER [Q32N] | -0.873 ± 0.22

Variant | abundance fitness
FIDQHRAALIARVTNVEWLLDALYGKVLTDESYQAVRAEPTNPSKMRKLFSFTPAWNWTCKDLLLQALRESQSYLVEDLER [Q32S] | -0.598 ± 0.091
FIDQHRAALIARVTNVEWLLDALYGKVLTDERYQAVRAEPTNPSKMRKLFSFTPAWNWTCKDLLLQALRESQSYLVEDLER [Q32R] | -0.917 ± 0.11
FIDQHRAALIARVTNVEWLLDALYGKVLTDEIYQAVRAEPTNPSKMRKLFSFTPAWNWTCKDLLLQALRESQSYLVEDLER [Q32I] | -0.772 ± 0.26
FIDQHRAALIARVTNVEWLLDALYGKVLTREQYQAVRAEPTNPSKMRKLFSFTPAWNWTCKDLLLQALRESQSYLVEDLER [D30R] | -0.254 ± 0.053
FIDQHRAALIARVTNVEWLLDALYGKVLTGEQYQAVRAEPTNPSKMRKLFSFTPAWNWTCKDLLLQALRESQSYLVEDLER [D30G] | -0.545 ± 0.052
FIDQHRAALIARVTNVEWLLDALYGKVLTCEQYQAVRAEPTNPSKMRKLFSFTPAWNWTCKDLLLQALRESQSYLVEDLER [D30C] | -0.539 ± 0.13
FIDQHRAALIARVTNVEWLLDALYGKVLTVEQYQAVRAEPTNPSKMRKLFSFTPAWNWTCKDLLLQALRESQSYLVEDLER [D30V] | -0.339 ± 0.055
FIDQHRAALIARVTNVEWLLDALYGKVLTSEQYQAVRAEPTNPSKMRKLFSFTPAWNWTCKDLLLQALRESQSYLVEDLER [D30S] | -0.249 ± 0.058
FIDQHRAALIARVTNVEWLLDALYGKVLTKEQYQAVRAEPTNPSKMRKLFSFTPAWNWTCKDLLLQALRESQSYLVEDLER [D30K] | -0.416 ± 0.12
FIDQHRAALIARVTNVEWLLDALYGKVLTLEQYQAVRAEPTNPSKMRKLFSFTPAWNWTCKDLLLQALRESQSYLVEDLER [D30L] | -0.097 ± 0.047
FIDQHRAALIARVTNVEWLLDALYGKVLTPEQYQAVRAEPTNPSKMRKLFSFTPAWNWTCKDLLLQALRESQSYLVEDLER [D30P] | -0.213 ± 0.075
FIDQHRAALIARVTNVEWLLDALYGKVLTNEQYQAVRAEPTNPSKMRKLFSFTPAWNWTCKDLLLQALRESQSYLVEDLER [D30N] | -0.325 ± 0.084
FIDQHRAALIARVTNVEWLLDALYGKVLTEEQYQAVRAEPTNPSKMRKLFSFTPAWNWTCKDLLLQALRESQSYLVEDLER [D30E] | -0.013 ± 0.077
FIDQHRAALIARVTNVEWLLDALYGKVLTYEQYQAVRAEPTNPSKMRKLFSFTPAWNWTCKDLLLQALRESQSYLVEDLER [D30Y] | -0.293 ± 0.11
FIDQHRAALIARVTNVEWLLDALYGKVLTIEQYQAVRAEPTNPSKMRKLFSFTPAWNWTCKDLLLQALRESQSYLVEDLER [D30I] | -0.309 ± 0.14
FIDQHRAALIARVTNVEWLLDALYGKVLTWEQYQAVRAEPTNPSKMRKLFSFTPAWNWTCKDLLLQALRESQSYLVEDLER [D30W] | -0.26 ± 0.074
FIDQHRAALIARVTNVEWLLDALYGKVLTTEQYQAVRAEPTNPSKMRKLFSFTPAWNWTCKDLLLQALRESQSYLVEDLER [D30T] | -0.193 ± 0.13
